Measurements published in publication PMC9328939, “A Randomized Double‐Blind Placebo‐Controlled First‐In‐Human Phase 1 Trial of TransCon PTH in Healthy Adults” (Journal of Bone and Mineral Research, 2020).
Where “and” joins values, the source holds several entries; their conditions need not be identical. Equal entries are not always repeated.

Test system: healthy adults
Assay: Safety and tolerability: adverse events in SAD and MAD cohorts
[1] = MAD, 24 μg/day x 10 days, n = 8, at least possibly related, number of subjects (%)
[2] = MAD, Total of all TransCon PTH doses (3.5 to 24 μg/day), n = 50, number of subjects (%)
[3] = MAD, Total of all TransCon PTH doses, n = 50, at least possibly related, number of subjects (%)
[4] = SAD cohorts administered TransCon PTH (n = 56)
[5] = SAD, Total of all TransCon PTH doses (3.5 to 124 μg), n = 56, number of subjects (%)
[6] = SAD, Total of all TransCon PTH doses, n = 56, at least possibly related, number of subjects (%)
[7] = SAD, single s.c. 3.5 μg, n = 8, number of subjects (% of cohort)
[8] = SAD, single s.c. 3.5 μg, n = 8, vasodilatory AEs at least possibly related to study drug, number of subjects (%)
[9] = SAD, single s.c. 12 μg, n = 8, at least possibly related, number of subjects (%)
[10] = SAD, single s.c. 12 μg, n = 8, number of subjects (% of cohort)
[11] = SAD, single s.c. 32 μg, n = 8, at least possibly related, number of subjects (%)
[12] = SAD, single s.c. 32 μg, n = 8, number of subjects (% of cohort)
[13] = SAD, single s.c. 48 μg, n = 8, at least possibly related, number of subjects (%)
[14] = SAD, single s.c. 48 μg, n = 8, number of subjects (% of cohort)
[15] = SAD, single s.c. 72 μg, n = 8, at least possibly related, number of subjects (%)
[16] = SAD, single s.c. 72 μg, n = 8, number of subjects (% of cohort)
[17] = SAD, single s.c. 100 μg, n = 8, at least possibly related, number of subjects (%)
[18] = SAD, single s.c. 100 μg, n = 8, number of subjects (% of cohort)
[19] = SAD, single s.c. 124 μg, n = 8, at least possibly related, number of subjects (%)
[20] = SAD, single s.c. 124 μg, n = 8, number of subjects (% of cohort)

Method: Subjects attended a screening visit; those who met eligibility criteria were randomly assigned to a SAD or MAD cohort (n = 10/cohort; eight active and two placebo) and received a single or multiple dose(s) of TransCon PTH, respectively, via a syringe and 31G 8‐mm needle s.c. to the abdomen. […] Multiple TransCon PTH doses administered daily for 10 days ranged from 3.5 to 24 μg PTH(1‐34)/day. Throughout drug administration and for 4 days following the final dose, subjects remained housed for laboratory tests and safety monitoring.
At screening, demographic information, medical history, and concomitant medications, vital signs with height and weight, hematology, blood chemistry (including sCa, sP, and sMg), intact endogenous PTH(1‐84), 1,25‐dihydroxyvitamin D, and urine samples were collected. In addition, a limited physical examination and electrocardiogram (ECG) were performed.
Via regular vital sign checks, physical examinations, and safety laboratory tests, subjects were also monitored for adverse events (AEs) throughout the trial, including injection site reactions (erythema, ecchymosis, edema, pruritus, and pain).

Substance: TransCon PTH: long-acting, essentially inactive prodrug: PTH(1-34) transiently bound to an inert 40 kDa mPEG carrier via a proprietary autocleaving linker
- Any moderate or severe AE (%) (MAD, 24 μg/day s.c. x 10 days, n = 8, number of subjects (% of cohort)): 5 (62.5) %
- Dizziness, light-headedness (including postural/orthostatic dizziness, syncope, presyncope) (%) [1]: 2 (25.0) %
- Tachycardia/palpitations (%) [1]: 3 (37.5) %
- Any AE (%) [2]: 66% and 33 (66.0) %
- Any SAE (%) [2]: 1 (2.0) %
- Any drug-related AE (%) [2]: 16 (32.0) %
- Any moderate or severe AE (%) [2]: 14 (28.0) %
- Dizziness, light-headedness (including postural/orthostatic dizziness, syncope, presyncope) (%) [3]: 5 (10.0) %
- Tachycardia/palpitations (%) [3]: 5 (10.0) %
- maximum tolerable dose (MTD) (MAD, healthy volunteers, daily s.c. x 10 days): 20 μg PTH(1-34)/day
- discontinuation of the trial due to an AE (SAD and MAD cohorts): No subjects
- drug-related SAEs or severe AEs (SAD and MAD cohorts): no drug‐related SAEs or severe AEs
- physical examination, ECG, standard safety laboratory tests (SAD and MAD cohorts): no safety concerns were detected
- tolerability (SAD and MAD cohorts, s.c.): generally well tolerated
- treatment-emergent AE: dizziness [4]: 10.7%
- treatment-emergent AE: headache [4]: 7.1%
- treatment-emergent AE: postural dizziness [4]: 5.4%
- maximum tolerable dose (MTD) (SAD cohorts, up to the top dose of 124 μg PTH(1-34)): No MTD was observed
- Any AE (%) [5]: 41.1% and 23 (41.1) %
- Any SAE (%) [5]: 1 (1.8) %
- Any drug-related AE (%) [5]: 14 (25.0) %
- Any moderate or severe AE (%) [5]: 6 (10.7) %
- Dizziness, light-headedness (including postural/orthostatic dizziness, syncope, presyncope) (%) [6]: 4 (7.1) %
- Tachycardia/palpitations (%) [6]: 0 (0.0) %
- Any AE (%) [7]: 1 (12.5) %
- Any SAE (%) [7]: 0 (0) %
- Any drug-related AE (%) [7]: 1 (12.5) %
- Any moderate or severe AE (%) [7]: 0 (0) %
- Dizziness, light-headedness (including postural/orthostatic dizziness, syncope, presyncope) (%) [8]: 0 (0.0) %
- Tachycardia/palpitations (%) [8]: 0 (0.0) %
- Dizziness, light-headedness (including postural/orthostatic dizziness, syncope, presyncope) (%) [9]: 0 (0.0) %
- Tachycardia/palpitations (%) [9]: 0 (0.0) %
- Any AE (%) [10]: 3 (37.5) %
- Any SAE (%) [10]: 1 (12.5) %
- Any drug-related AE (%) [10]: 1 (12.5) %
- Any moderate or severe AE (%) [10]: 1 (12.5) %
- Dizziness, light-headedness (including postural/orthostatic dizziness, syncope, presyncope) (%) [11]: 1 (12.5) %
- Tachycardia/palpitations (%) [11]: 0 (0.0) %
- Any AE (%) [12]: 3 (37.5) %
- Any SAE (%) [12]: 0 (0) %
- Any drug-related AE (%) [12]: 2 (25.0) %
- Any moderate or severe AE (%) [12]: 0 (0) %
- Dizziness, light-headedness (including postural/orthostatic dizziness, syncope, presyncope) (%) [13]: 0 (0.0) %
- Tachycardia/palpitations (%) [13]: 0 (0.0) %
- Any AE (%) [14]: 6 (75.0) %
- Any SAE (%) [14]: 0 (0) %
- Any drug-related AE (%) [14]: 5 (62.5) %
- Any moderate or severe AE (%) [14]: 2 (25.0) %
- Dizziness, light-headedness (including postural/orthostatic dizziness, syncope, presyncope) (%) [15]: 0 (0.0) %
- Tachycardia/palpitations (%) [15]: 0 (0.0) %
- Any AE (%) [16]: 2 (25.0) %
- Any SAE (%) [16]: 0 (0) %
- Any drug-related AE (%) [16]: 0 (0.0) %
- Any moderate or severe AE (%) [16]: 1 (12.5) %
- Dizziness, light-headedness (including postural/orthostatic dizziness, syncope, presyncope) (%) [17]: 2 (25.0) %
- Tachycardia/palpitations (%) [17]: 0 (0.0) %
- Any AE (%) [18]: 4 (50.0) %
- Any SAE (%) [18]: 0 (0) %
- Any drug-related AE (%) [18]: 3 (37.5) %
- Any moderate or severe AE (%) [18]: 1 (12.5) %
- Dizziness, light-headedness (including postural/orthostatic dizziness, syncope, presyncope) (%) [19]: 1 (12.5) %
- Tachycardia/palpitations (%) [19]: 0 (0.0) %
- Any AE (%) [20]: 4 (50.0) %
- Any SAE (%) [20]: 0 (0) %
- Any drug-related AE (%) [20]: 2 (25.0) %
- Any moderate or severe AE (%) [20]: 1 (12.5) %
